Where two headings read alike, the source gives them in different places. One block for each molecule: values may come before it.
Key:
[1] = human, in vivo; cited from earlier work
[2] = Pharmacokinetics of rGhrelin and rGhrelin-carrier conjugate after IV injection, plasma ELISA; assay type: in vivo, Sprague Dawley rats; settings: 0.1 mg/kg IV
Protocol: Pharmacokinetics of rGhrelin (SEQ ID NO:6) or the rGhrelin-carrier conjugate was studied in Sprague Dawley rats. Briefly, 0.1 mg/kg of each molecule was injected separately into the rats by intravenous (IV) injection. Samples of plasma were collected at 30 mins, 60 mins, 120 mins, 240 mins, 360 mins, 24 hrs and 48 hrs. Samples were analyzed using a commercial ELISA kit validated for analyzing rGhrelin from rat plasma (Millipore, Cat. #EZRGRT-91K). […] Thus, ghrelin in a conjugated form is a useful therapeutic for the treatment of ghrelin-responsive diseases such as cachexia, anorexia and frailty in the elderly.

GHS-R = molecular target: T1, GHS-R (Homo sapiens, UniProt Q92847); assay: Cell-based ghrelin receptor agonist assay, calcium flux (FLIPR) in GHS-R-expressing CHO-K1 cells; settings: in the presence of 10% serum that contains DBP
T1 construct: host or cells: CHO-K1
T1 sequence (Q92847 whole entry, species assumed): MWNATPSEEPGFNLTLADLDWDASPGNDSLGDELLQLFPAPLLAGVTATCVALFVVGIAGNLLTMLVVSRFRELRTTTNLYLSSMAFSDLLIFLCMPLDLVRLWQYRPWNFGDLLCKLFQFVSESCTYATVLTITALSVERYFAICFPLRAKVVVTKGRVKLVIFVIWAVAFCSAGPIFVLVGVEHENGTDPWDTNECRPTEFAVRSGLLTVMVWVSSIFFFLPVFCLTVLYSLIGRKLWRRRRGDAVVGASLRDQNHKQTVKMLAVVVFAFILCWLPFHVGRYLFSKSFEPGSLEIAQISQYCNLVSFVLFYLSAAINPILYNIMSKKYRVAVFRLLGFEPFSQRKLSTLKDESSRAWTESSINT
Protocol: The test compounds were added to GHS-R-expressing CHO-K1 cell cultures. […] The activity was measured by a calcium flux-based assay developed by GenScript USA Inc. for the FLIPR™ (Fluorescence Imaging Plate Reader) high-throughput cellular screening instrument.
CHO-K1 cells expressing GHS-R were cultured in Ham's F12 supplemented with 10% fetal bovine serum, 500 mg/mL G418 and were passaged in order to maintain optimal cell health. The cells were seeded in a 384-well black-wall, clear-bottom plate at a density of 20,000 cells per well in 20 μL of growth medium 18 hours prior to the assay and maintained at 37° C./5% CO2. […] The intracellular calcium levels in the cells were measured for 20 seconds using the FLIPR™ instrument prior to addition of the test articles. […] Changes in intracellular calcium levels were measured for an additional 100 sec (21 to 120 seconds).
The average value of the 20 second reading (1 to 20 seconds) was calculated as the baseline reading and the relative fluorescent units (ΔRFU) intensity values were calculated with the maximal fluorescent units (21 to 120 seconds) subtracting the average value of baseline reading. […]
The % activation of compound was calculated using the following equation: % activation=(ΔRFUCompound−ΔRFUBackground)/(ΔRFUAgonist control−ΔRFUBackground)}*100% activation was then plotted as a function of the log of the cumulative doses of compounds. […]

[3] = Pharmacokinetics of FGF21 and FGF21-carrier conjugate after SC injection, plasma ELISA; assay type: in vivo, Sprague Dawley rats; settings: 0.1 mg/kg SC
Protocol: Pharmacokinetics of FGF21 (SEQ ID NO:3) or the FGF21-carrier conjugate was studied in Sprague Dawley rats. Briefly, 0.1 mg/kg of each molecule was injected separately into the rats by SC injection. Samples of plasma were collected at 30 mins, 60 mins, 120 mins, 240 mins, 360 mins, 24 hrs and 48 hrs. Samples were analyzed using a commercial ELISA kit validated for FGF21 (Millipore, Cat. #EZHFGF21-19K).

Molecule: CCCCCCCC(=O)OC[C@H](NC(=O)[C@H](CO)NC(=O)CN)C(=O)N[C@@H](Cc1ccccc1)C(=O)N[C@@H](CC(C)C)C(=O)N[C@@H](CO)C(=O)N1CCC[C@H]1C(=O)N[C@@H](CCC(=O)O)C(=O)N[C@@H](Cc1cnc[nH]1)C(=O)N[C@@H](CCC(N)=O)C(=O)N[C@@H](CCCNC(=N)N)C(=O)N[C@H](C(=O)N[C@@H](CCC(N)=O)C(=O)N[C@@H](CCC(N)=O)C(=O)N[C@@H](CCCNC(=N)N)C(=O)N[C@@H](CCCCN)C(=O)N[C@@H](CCC(=O)O)C(=O)N[C@@H](CO)C(=O)N[C@@H](CCCCN)C(=O)N[C@@H](CCCCN)C(=O)N1CCC[C@H]1C(=O)N1CCC[C@H]1C(=O)N[C@@H](C)C(=O)N[C@@H](CCCCN)C(=O)N[C@@H](CC(C)C)C(=O)N[C@@H](CCC(N)=O)C(=O)N1CCC[C@H]1C(=O)N[C@@H](CCCNC(=N)N)C(=O)O)C(C)C [ghrelin]
half-life [1]: 11 min

B1: FGF21-carrier conjugate: Modified FGF21 (SEQ ID NO:3) conjugated through its free cysteine to the Vitamin D3-PEG-maleimide carrier of Example 1 (conjugate)
chain: MGSHHHHHHSSGENLYFQGHPCPDSSPLLQFGGQVRQRYLYTDDAQQTEAHLEIREDGTVGGAADQSPESLLQLKALKPGVIQILGVKTSRFLCQRPDGALYGSLHFDPEACSFRELLLEDGYNVYQSEAHGLPLHLPGNKSPHRDPAPRGPARFLPLPGLPPALPEPPGILAPQPPDVGSSDPLSMVEPSQGRSPSYASP
modifications: Vitamin D3-PEG-maleimide carrier
area under the curve (AUC) ([3]; Sprague Dawley rats, plasma): 1047.98 ng·h/mL | average Cmax ([3]; Sprague Dawley rats, plasma): 143.526 ng/mL | increase in bioavailability (ratio of average Cmax, conjugate vs FGF21) ([3]; rats): 380 fold | increase in drug exposure (ratio of mean AUC, conjugate vs FGF21) ([3]; rats): 675 fold

Further lines, with some results ahead:

half-life ([2]; rat, in vivo, Sprague Dawley rats, plasma, read-out: half-life (WinNonLin) (converted)): 22.2 min
Molecule: CCCCCCCC(=O)OC[C@H](NC(=O)[C@H](CO)NC(=O)CN)C(=O)N[C@@H](Cc1ccccc1)C(=O)N[C@@H](CC(C)C)C(=O)N[C@@H](CO)C(=O)N1CCC[C@H]1C(=O)N[C@@H](CCC(=O)O)C(=O)N[C@@H](Cc1c[nH]cn1)C(=O)N[C@@H](CCC(N)=O)C(=O)N[C@@H](CCCCN)C(=O)N[C@@H](C)C(=O)N[C@@H](CCC(N)=O)C(=O)N[C@@H](CCC(N)=O)C(=O)N[C@@H](CCCNC(=N)N)C(=O)N[C@@H](CCCCN)C(=O)N[C@@H](CCC(=O)O)C(=O)N[C@@H](CO)C(=O)N[C@@H](CCCCN)C(=O)N[C@@H](CCCCN)C(=O)N1CCC[C@H]1C(=O)N1CCC[C@H]1C(=O)N[C@@H](C)C(=O)N[C@@H](CCCCN)C(=O)N[C@@H](CC(C)C)C(=O)N[C@@H](CCC(N)=O)C(=O)N1CCC[C@H]1C(=O)N[C@@H](CCCNC(=N)N)C(=O)N[C@@H](CS)C(=O)O [rGhrelin, reference compound]

interference in receptor binding and activation (GHS-R): No interference
Molecule: rGhrelin-carrier conjugate: Rat ghrelin peptide (SEQ ID NO:6) conjugated via free cysteine to the Vitamin D3-PEG-maleimide carrier of Example 1 (GSSFLSPEHQKAQQRKESKKPPAKLQPRC; Vitamin D3-PEG-maleimide carrier)
half-life (WinNonLin) ([2]; Sprague Dawley rats, plasma): 480 min | improvement in half-life vs rGhrelin ([2]; rats): 22 fold

— patent US9173950B2, “Vitamin D-ghrelin conjugates” (Extend Biosciences, Inc., priority 2012, dated 2015)
